Measured values taken from patent US11419921B2, “Methods of treating neurological disorders” (EnClear Therapies, Inc., priority 2018, dated 2022).

Test system: (GR)10
Assay: (GR)10 digestion with immobilized proteases in human cerebrospinal fluid (CSF)
Assay type: biochemical
Settings: immobilized enzyme
Protocol: Protease solutions were prepared at 2 mg/mL in sterile PBS with calcium, magnesium and 200 μL ([…]) were applied to 100 μL of pre-washed NHS-activated agarose resin in 0.8 mL centrifuge columns. Reactions were left 1.5 hour at room temperature with end-to-end mixing, after which resins were washed with 12 resin volumes of PBS. Unreacted sites were blocked with 500 μL of 1M ethanolamine for 15 minutes at room temperature and resins were further washed with 24 resin volumes. Resins were stored at 4 degrees in 500 μL of PBS containing 0.05% sodium azide as preservative.
200 μM of (GR)10 were diluted in human cerebrospinal fluid (CSF) and 400 μL were applied to each immobilized proteases. The reaction was incubated 5 minutes at room temperature with end-to-end mixing. Columns were spun down 1 minute at 1,000 Xg to recover digested GR dipeptides. Columns were washed with 12 resin volumes of PBS. The procedure was repeated with 60 minutes digestion time. 100 μL of each samples were transferred to a clean tube, flash-frozen and subsequently used for LC/MS quantification of GR repeats of different lengths. The remaining 300 μL of each samples were flash-frozen and used to assess neuron toxicity.
(GR)10 was digested with exemplary immobilized enzymes as described above in the subsection titled “(GR)10 digestion with immobilized proteases in CSF” of Example 3. Clostripain experiments were conducted with and without DTT activation (no DTT during digestion). The results obtained after 5 and 60 minutes of reaction time are presented in Table 25 and shown in FIG. 5 (commercial and in-house immobilized trypsin), FIG. 6 (immobilized elastase, FIG. 7A (immobilized clostripain without DTT) and FIG. 7 (immobilized clostripain with 2.5 mM DTT).

Molecule	(GR)1 (normalized uM) (5 min reaction) [µM]	(GR)2 (normalized uM) (5 min reaction) [µM]	(GR)3 (normalized uM) (5 min reaction) [µM]	(GR)4 (normalized uM) (5 min reaction) [µM]	(GR)5 (normalized uM) (5 min reaction) [µM]	(GR)6 (normalized uM) (5 min reaction) [µM]	(GR)8 (normalized uM) (5 min reaction) [µM]	(GR)10 (normalized uM) (5 min reaction) [µM]	(GR)1 (normalized uM) (60 min reaction) [µM]	(GR)2 (normalized uM) (60 min reaction) [µM]	(GR)3 (normalized uM) (60 min reaction) [µM]	(GR)4 (normalized uM) (60 min reaction) [µM]	(GR)5 (normalized uM) (60 min reaction) [µM]	(GR)6 (normalized uM) (60 min reaction) [µM]	(GR)8 (normalized uM) (60 min reaction) [µM]	(GR)10 (normalized uM) (60 min reaction) [µM]
Trypsin: protease cleaving at the carboxyl side of lysine or arginine; in Table 21 also immobilized in-house on NHS-activated agarose resin (protein, UniProt P00760 24-246, looked up) Serine protease 1: IVGGYTCGANTVPYQVSLNSGYHFCGGSLINSQWVVSAAHCYKSGIQVRLGEDNINVVEGNEQFISASKSIVHPSYNSNTLNNDIMLIKLKSAASLNSRVASISLPTSCASAGTQCLISGWGNTKSSGTSYPDVLKCLKAPILSDSSCKSAYPGQITSNMFCAGYLEGGKDSCQGDSGGPVVCSGKLQGIVSWGSGCAQKNKPGVYTKVCNYVSWIKQTIASN	1153.4	9.0	0.0	0.0	0.0	0.0	0.0	0.0	1182.3	0.0	0.0	0.0	0.0	0.0	0.0	0.0
Clostripain: sulfhydryl protease cleaving at the C-terminus of arginine residues; in Table 23 also immobilized on agarose resin (protein) NKNQKVTIMYYCDADNNLEGSLLNDIEEMKTGYKDSPNLNLIALVDRSPRYSSDEKVLGEDFSDTRLYKIEHNKANRLDGKNEFPEISTTSKYEANMGDPEVLKKFIDYCKSNYEADKYVLIMANHGGGAREKSNPRLNRAICWDDSNLDKNGEADCLYMGEISDHLTEKQSVDLLAFDACLMGTAEVAYQYRPGNGGFSADTLVASSPVVWGPGFKYDKIFDRIKAGGGTNNEDDLTLGGKEQNFDPATITNEQLGALFVEEQRDSTHANGRYDQHLSFYDLKKAESVKRAIDNLAVNLSNENKKSEIEKLRGSGIHTDLMHYFDEYSEGEWVEYPYFDVYDLCEKINKSENFSSKTKDLASNAMNKLNEMIVYSFGDPSNNFKEGKNGLSIFLPNGDKKYSTYYTSTKIPHWTMQSWYNSIDTVKYGLNPYGKLSWCKDGQDPEINKVGNWFELLDSWFDKTNDVTGGVNHYQW	11.2	10.0	0.0	0.0	8.5	0.0	0.0	395	106.2	99.2	72.3	84.7	85.5	87	58.4	0
